Molecular target: the molecule itself
Experiment: cryo-EM structure

B1: full-length human SLC30A10 (natural protein, UniProt Q6XR72 1-485, looked up)
chain: MGRYSGKTCRLLFMLVLTVAFFVAELVSGYLGNSIALLSDSFNMLSDLISLCVGLSAGYIARRPTRGFSATYGYARAEVVGALSNAVFLTALCFTIFVEAVLRLARPERIDDPELVLIVGVLGLLVNVVGLLIFQDCAAWFACCLRGRSRRLQQRQQLAEGCVPGAFGGPQGAEDPRRAADPTAPGSDSAVTLRGTSVERKREKGATVFANVAGDSFNTQNEPEDMMKKEKKSEALNIRGVLLHVMGDALGSVVVVITAIIFYVLPLKSEDPCNWQCYIDPSLTVLMVIIILSSAFPLIKETAAILLQMVPKGVNMEELMSKLSAVPGISSVHEVHIWELVSGKIIATLHIKYPKDRGYQDASTKIREIFHHAGIHNVTIQFENVDLKEPLEQKDLLLLCNSPCISKGCAKQLCCPPGALPLAHVNGCAEHNGGPSLDTYGSDGLSRRDAREVAIEVSLDSCLSDHGQSLNKTQEDQCYVNRTHF
- stoichiometry N: 2
